Here are results for five molecules from publication PMC8892312 (Proceedings of the National Academy of Sciences of the …, 2022).

First the molecules themselves.
B1: Gp46 from bacteriophage SPO1 (natural protein)
chain: MMTEDQKFKYLTKIEELEAGCFSDWTKEDITGDLKYLKKGIIEESIELIRAVNGLTYSEELHDFTQEIIEELDISPL
B2: HU of Plasmodium falciparum (natural protein)
chain: RRAFINVHKNNIINNKLSVNNPYNKNALYQSSSKIPMSQAITKKQIIEEVSMETKENKKTVEKIMNGIFDNIYKHLENNEKIYIHKFGMFYNIFRKKRCIKNLRTKEDIEIESSHMPHFKFSKVFKELIKQNVKVKKGKGVSTNDHDLDEDDMNMDNINESFKENVNEKLIY
B3: Gp46^D63N (natural protein)
chain: B1 chain with D63N
B4: HBsu (histone-like protein HU of B. subtilis), recombinant (natural protein)
chain: MNKTELINAVAEASELSKKDATKAVDSVFDTILDALKNGDKIQLIGFGNFEVRERSARKGRNPQTGEEIEIPASKVPAFKPGKALKDAVAGK
B5: dsDNA (DNA1/DNA2) (dsDNA)
DNA 1: TGCTTATCAATTTGTTGCACC
DNA 2: GGTGCAACAAATTGATAAGCA

In data set [1] the target is T1, HBsu^R53N/R55N/R58N (Bacillus subtilis, UniProt P08821 1-92, R53N | R55N | R58N).
T1 sequence: B4 chain with R53N, R55N, R58N
The data set is described as follows: ITC.

For data set [2], the target named is T2, HBsu^I71A (Bacillus subtilis, UniProt P08821 1-92, I71A).
T2 sequence: B4 chain with I71A
Kind of data set: ITC. A general note: In ITC the heat of successive injections is recorded.

The target in data set [3] is HU of Acinetobacter baumannii (Acinetobacter baumannii). Kind of data set: ITC.
Data set [4] concerns the target B4. The data set is described as follows: ITC.
The target of data set [5] is B4. Kind of data set: SPR. In general terms: SPR reads the build-up and loss of mass on a sensor chip optically.
Data set [6] deals with B1. The data set is described as follows: ITC.
Data set [7] has as its target B4. The data set is described as follows: ITC. This is another data set of the same source.
Data set [8] deals with the molecule itself. The data set is described as follows: SEC-MALS. A general note: Size exclusion chromatography separates by hydrodynamic size, large species first.
Data set [9] concerns the target T3, HBsu (HU of B. subtilis) (Bacillus subtilis, UniProt P08821 1-92).
T3 sequence: B4 chain
Kind of data set: ITC.

Changes are numbered by the printed parent chain. Names and notes keep the numbering of the source.

As for B1, the binding result in data set [1] is on record as “binds”. Also, the Kd (commonly the concentration at which binding is half-saturated) is 6410 ± 3540 nM in [2], 300 nM in data set [3], 277 ± 50 nM in data set [4] and 5870 ± 110 nM in [5]. Regarding B2, the dissociation constant (Kd) in data set [6] is about 300 nM. Regarding B3, in [7], the binding result is given as “binds”.

Take B4: the binding result in [8] is on record as “binds”. For B5, the Kd in [9] amounted to 359 ± 38 nM.
